According to the RNAGym collection of RNA variant scans (doi:10.1073/pnas.2313332121):

B1: TPR t1 (parent)
chain: GACCAAUCUGCCCUCAGAGCUCGAGAACAUCUUCGGAUGCAGAGGAGGCAGGCUUCGGUGGCGCGAUAGCGCCAACGUCCUCAACCUCCAAUGCAUCCCACCACAUGAUGAUGCCUGAAGAGCCUUGGUUUUUUG

Variants of: B1
Assay: polymerase ribozyme fitness, log enrichment relative to wild type (log ratio); higher = more active; in vitro selection for triplet polymerase activity
In short: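 For each subunit of a heterodimeric triplet polymerase ribozyme, a mutant library was built by PCR and transcribed, then taken through a single in vitro selection round in triplicate. Selection involved annealing to a biotinylated primer, the partner subunit and triplets, incubation frozen at −7 °C, gel excision of extended constructs, capture on streptavidin beads and RT-PCR. Genotypes were retained after Illumina sequencing of inputs and outputs only with ≥10 input reads and ≥1 read in each output. Fitness is defined as the logarithm of a genotype's enrichment relative to wild-type enrichment, using inverse-variance-weighted averages across replicates, with the logarithm taken to base 2.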

Row | Variant | polymerase ribozyme fitness (log ratio)
1 | C80U C101U | -0.367
2 | C80U C101A | -1.52
3 | C80G U112A | -5.14
4 | G77C U78C A105G A119G | -1.64
5 | G77A C80A U92C | -5.14
6 | G77C C101A G127A | -2.16
7 | C79G A90C U112A | -3.88
8 | U78C A83U G117C A119U | -3.98
9 | C79U A84G | -0.834
10 | C79G U131C | -1.28
11 | G77C A95C G113A | -2.42
12 | G77U C114G C124G | -1.15
13 | U78C G120U | -0.256
14 | U78C G120C | 0.45
15 | C79A C102U | -4.37
16 | C79U C86U | -0.175
17 | C80U G117A | -2.28
18 | U78C A103U | -5.46
19 | C79A C124G | -0.697
20 | C80A U81C | -4.02
21 | C79U C114U | -2.32
22 | G77C U78G U106A | -0.0347
23 | U78C A83C G113U | -3.26
24 | C79G G122A | -2.11

Row | Variant | polymerase ribozyme fitness (log ratio)
25 | C79G C123G | 0.221
26 | C80A U87G | -2.88
27 | G77U U78A A118U | -3.74
28 | C80U A84U G135C | -0.488
29 | U78C C114U | -2.28
30 | U78C C114G | -2.46
31 | G77A G93A A100G U112C U131A | -2.12
32 | U78C C85U U112A | 0.233
33 | U78C A100U U125G | -1.3
34 | G77C U96C G117A | -2.46
35 | U78C C115G U133A | -1.97
36 | C79A C99G G120U | -7.33
37 | C79U G117A A119U | -4
38 | C79A C94A G117U | -4.86
39 | U78A C79U U112A U131G | 0.67
40 | G77U G113A G135A | -1.34
41 | C80A A95G | -3.38
42 | U78C C80G | -4.13
43 | U78C C80A | -1.94
44 | U78A G110A | -1.32
45 | C79G U112A | -1.41
46 | C80A A108G | -5.73
47 | G77A C102A | -2.07
48 | U78C A95C | -1.06

Row | Variant | polymerase ribozyme fitness (log ratio)
49 | U78C G117U | -2.53
50 | G77A U81C | 0.0727
51 | G77A C86U U112A | 1.14
52 | C79A G128C | -3.31
53 | G77C C89U G110C G135A | -4.53
54 | G77C G120C | 0.526
55 | C79A A111G | -0.997
56 | C76U U112A | 0.984
57 | C79U G120A | 0.635
58 | G77C U96A U125A | -3.38
59 | G77A C88U | -0.0927
60 | C79G G110C | -6.49
61 | C79G G110A | -3.53
62 | U78C C79U U106C | 0.0469
63 | U78C U96A | -0.969
64 | C76U U96G U116G | -3.28
65 | G77U C104G | -6.6
66 | C79G U112C G122C | -0.637
67 | U78G G128A | -1.19
68 | U78A G120U | -0.295
69 | C80U C82G C101A C124G U126A | -1.21
70 | U78A G117U | -2.81
71 | U78C C102A G117C | -6.34
72 | C79G A103G | -5.92

Row | Variant | polymerase ribozyme fitness (log ratio)
73 | C76U U81C A100U G110A | -3.78
74 | C79A G93A | -1.37
75 | C79A C82G U112A | -1.75
76 | C80A C97G G117C | -7.22
77 | C79A G113A | -2.27
78 | U78C U87A C98U | -1.12
79 | U78G A111U | -3.77
80 | C79A U92C G110C U125G | -5.23
81 | U78A C88U U96G U129A U131A | -2.62
82 | G77U U78G C123A | -0.257
83 | C80U C115A G120A U125A | -1.71
84 | C79G C114A C115G | -6.59
85 | G77U G120C | 0.43
86 | G77U G120A | -0.148
87 | U78A C104A C114A | -5.24
88 | C80U C82U U96A | -1.82
89 | C79A G110C | -5.36
90 | C79A G110U | -3.48
91 | G77A U78G | -0.219
92 | C79A G107U A119G G135C | -5.92
93 | C79U U87A | 0.23
94 | U78C G113C | -1.53
95 | U78C G113U | -3.31
96 | C79U A105C | -1.36

Row | Variant | polymerase ribozyme fitness (log ratio)
97 | U78C U112C | 2.04
98 | U78C C79G U106A | -0.519
99 | U78C C88A U106G C114G | -3.35
100 | U78G G117C | -4.47
101 | C80G C124G | -4.49
102 | C79A G113A C124G | -3.89
103 | C80U A103G | -5.21
104 | U78G C86G C101U | -1.51
105 | U78C C94U U112C | 0.656
106 | C80A G93U G120C | -4.31
107 | C80G G110C | -6.58
108 | U78A A95U | -0.329
109 | U78A G113C U130C | -3.05
110 | G77U C89A U109A | -6.3
111 | G77A C79G A100U G113U C123G | -6.77
112 | U78C G122A | -1.22
113 | U78G C85G C88A A111G C114A | -6.16
114 | U78A C94G A118U G120C U132A | -0.124
115 | C79U A91C A100U | -3.6
116 | G77A U92G C94A C99G A111C | -8.36
117 | C80A G135U | -3.76
118 | G77C G110A A118C | -1.65
119 | C76U U106C G128C | -3.51
120 | C79U A90C G93A | -2.09

Row | Variant | polymerase ribozyme fitness (log ratio)
121 | C80U C115U | -2.06
122 | C79A A119G | -0.23
123 | C79G C101U | -1.49
124 | C79G C101A | -3.09
125 | U78C C101U G120U A121U U132A | 1.42
126 | C80U C88G C124U | -1.05
127 | C79A A121U U134G | 2.45
128 | U78A C104A | -1.8
129 | G77A C123G | 1.16
130 | G77A C123U | 1.1
131 | C79U C94U | -0.702
132 | G77U A95C C102A | -3.06
133 | U78G C102U G110A | -4.35
134 | C79A U116G | -4.15
135 | C79U G128C | -2.48
136 | C80U A119G | 0.683
137 | U78C C124U | 1.72
138 | C79U C80U U112A | -2.98
139 | C80A U106A | -3.28
140 | C79G C114G | -5.17
141 | C79G G127A | -2.38
142 | C79G G127U | -2.87
143 | C80U C89G | -1.42
144 | G77A C123G G135U | 0.853

Row | Variant | polymerase ribozyme fitness (log ratio)
145 | G77U U109A U116G | -7.07
146 | G77A U92C G117C | -5.8
147 | C80U C88U G127C | -1.46
148 | G77C C85U | -1.99
149 | C76U U87A G110A U130G | -2.07
150 | G77A A91G C114U | -2.54
151 | G77A U109C | -3
152 | C80A G127U | -3.48
153 | U78C U87A U130C | 0.517
154 | C79G U109A | -7.49
155 | C80A A121C | -1.11
156 | U78C U92G | -2.87
157 | C80U C89A A119U | -2.89
158 | U78A G128A | -1.76
159 | C79U U81C | -1.91
160 | C79U U92G C115G | -3.67
161 | G77C A83C | -0.826
162 | C79U G110A | -0.826
163 | C76U U129G | -0.833
164 | G77C U131G | -0.172
165 | C79U A119U | -0.48
166 | U78G C89U U125G | -0.754
167 | U78C C101U | -0.647
